The target of data set [1] is T1, recombinant Hsp90 (Homo sapiens, UniProt P07900, S63T).
T1 construct: GST-Hsp90 (amino acids 1-732); GST (N); made in house; host or cells: E. coli
As to the kind of experiment: ELISA binding to recombinant Hsp90. The source says: FIG. 31 is a graph depicting Hsp90 binding by Survivin peptides, measured by ELISA. Data are the mean±S.D. of two independent experiments.

In data set [2] the test system is breast carcinoma MCF-7 cells. As to the kind of experiment: Soft agar colony formation (anchorage-independent growth). The following applies: 75 or 150 μm in growth media, relative to Control scrambled peptide. Type of data set: cell-based. As for the experimental part:
For soft agar colony formation, 2×10^4 adapted breast carcinoma MCF-7 cells were suspended in 1.5 ml of DMEM supplemented with 10% FBS and 0.35% bactoagar (Becton Dickinson, Sparks, Md.) in 36 mm tissue culture plates containing 1.5 ml of 0.75% agarose in growth medium at the bottom layer. The plates were incubated at 37° C. in a 5% CO2 incubator for 2-5 weeks. The colonies were stained with 0.005% crystal violet (Sigma) and counted using a dissecting microscope under high power field.
The two upper plates shown in FIG. 19 had no visible cell colonies.

Data set [3] concerns the target T2, N-terminus of Hsp90 (Homo sapiens, UniProt P07900, S63T).
T2 construct: GST (N); made in house; host or cells: E. coli
As to the kind of experiment: ELISA of immobilized peptide with Hsp90 fragments. The format is binding. The following applies: compared to P33 peptide. On the procedure:
ELISA experiments were performed by immobilizing recombinant Survivin (r-Survivin) ([…]) or recombinant Hsp90 (r-Hsp90) (10 μg/ml) on plastic microtiter wells (Immulon™-2, Dynatech Laboratories, Chantilly, Va.) using bicarbonate buffer, pH 9.5 (100 μl/well) for 18 hours at 4° C. Bound protein was blocked with 3% gelatin for 1 hour at 37° C., rinsed with washing buffer (TBS pH 7.4, 0.1% Tween™, 0.1% BSA) and incubated for 1 hour at 37° C. with different concentrations of a test protein to determine if the test protein bound the immobilized protein.
Nucleotide sequences encoding full length Hsp90α (SEQ ID NO:21; amino acids 1-732) or three fragments: N-Hsp90 (amino acids 1-272 of SEQ ID NO:21), M-Hsp90, (amino acids 273-617 of SEQ ID NO:21), and C-Hsp90 (amino acids 629-732 of SEQ ID NO:21) were cloned by PCR in pGex-4T3 (Pharmacia Biotech.) and pFLAG-CMV 6c (Sigma) using the BamHI cloning sites. GST fusions of full length Hsp90, or individual Hsp90 fragments were expressed in E. coli and bound to glutathione beads (Sigma). Purified recombinant Survivin devoid of the GST frame was obtained as described in Example 2.
FIGS. 24A and 24B identify the location of P31 peptide's binding site as the N-terminus domain of Hsp90. […] After washing, binding of the individual Hsp90 fragments to the immobilized peptides was detected with an antibody to Hsp90. […]
For orientation: ELISA stands for enzyme-linked immunosorbent assay.

Data set [4] relates to HFF, HGF, WS-1 normal cells. As to the kind of experiment: MTT colorimetric viability assay, normal cell types. Particulars: 24 hours. The format is cell-based, human. As for the experimental part:
FIGS. 22A and 22B compares the effect of P31 (SEQ ID NO:19) or P33 (SEQ ID NO:25) on apoptosis of tumor cell lines (FIG. 22A) and normal cell lines (FIG. 22B). The following tumor cell lines DU145 (prostate cancer, circles), PC3 (prostate cancer, triangles), or HeLa (cervical carcinoma, squares) were treated with the indicated increasing concentrations of P31 peptide (solid symbols) or control P33 peptide (open symbols), harvested after 24 hours, and analyzed for cell viability using an MTT colorimetric assay. For normal cell types (right panel), HFF (human foreskin fibroblasts, squares), HGF (human fibroblasts, triangles) or WS-1 (human epithelial cells, circles) were treated with P31 (solid symbols) or control scrambled peptide P33, harvested after 24 hours and analyzed for overall cell viability by MTT colorimetric assay. All cell lines were from ATCC.
A general note: Tetrazolium dyes change colour on reduction, which living cells bring about.

Data set [5] relates to HeLa cells. As to the kind of experiment: Apoptosis by hypodiploid DNA content, propidium iodide flow cytometry. The format is cell-based, Human. Particulars: 24 hours. On the procedure:
For determination of apoptosis by hypodiploid DNA content, various tumor cell lines were incubated with increasing concentrations of the cell permeable control scrambled (SEQ ID NO:25) or Survivin peptide (SEQ ID NO:19), harvested after 24 hours (floaters plus attached cells) fixed in 70% ethanol, and stained with 10 μg/ml propidium iodide plus 100 μg/ml RNAse A and 0.05% Triton™ X-100 in PBS, pH 7.4. Cultures were analyzed for DNA content by flow cytometry. For colorimetric quantification of cell viability, an MTT assay was used. Various tumor cell lines were incubated with increasing concentrations of the cell permeable retro-inverso control scrambled P4 or the Survivin-specific P3 peptide, incubated for 24 hours at 37° C. washed twice with Bruffs Media, and 4,5-dimethylthiazol-2-yl)-2,5-diphenyltetrazolium bromide (MTT) (Sigma, St. Louis, Mo.) was added at 5 mg/ml. Decrease in cell viability was analyzed for loss of colorimetric absorption at OD405.
HeLa cells were incubated with the indicated increasing concentrations of the cell permeable Control (scrambled) or Survivin peptide, harvested after 24 hours at 37° C., and analyzed by hypodiploid DNA content by propidium iodide staining and flow cytometry.
HeLa cells were incubated with chemotherapeutic drugs Taxol™ (10 μM) or adriamycin (300 nM), or cell permeable control peptide or the Survivin peptide, harvested after 24 hours, and analyzed for induction of apoptosis by hypodiploid DNA content by flow cytometry.
In general terms: A flow cytometer gives signals particle by particle.

“RQIKIWFQNRRMKWKKKHSSGCAFL (Synthetically generated peptide) [P31]”: in data set [1], the “binding to recombinant Hsp90 in vitro” value is “comparably bound recombinant Hsp90”. The “anchorage-independent cell growth and survival” value in data set [2] was “completely inhibited”. Moreover, the “binding to the N-terminus of Hsp90 (OD405)” value in data set [3] is recorded as “bound specifically”. Moreover, the “cell death in normal cell types (MTT)” value in data set [4] is on record as “did not induce cell death in any of the three normal cell types”. The “cell viability reflected by hypodiploid DNA content” value in data set [5] (increasing concentrations, 37° C.) was “massive loss of cell viability”. Moreover, the “cell population with hypodiploid DNA content (apoptotic)” value in data set [5] (peptides, comparison with chemotherapeutic drugs) is “results in the appearance of a large cell population with hypodiploid DNA content”.

Source of the values: patent publication US8420777B2, “Compounds that inhibit Hsp90 protein-protein interactions with IAP proteins” (University of Massachusetts, priority 2004, dated 2013).
